From publication PMC13544220, “Glycemic and bodyweight effects of GIPR coding variation reflect differences in surface expression and intrinsic functional impairment” (Science Advances, 2026)
Numbering of substitutions follows the chain as printed. Names may count otherwise.

What was measured:
Format in all cases: cell-based, human
[1] = system: wild-type and variant SNAP-GIPR; assay: Surface SNAP-GIPR expression (SNAP-tag labelling) in AD293 cells; settings: for AD293 Surface: Fig S3E, mean; for Surface SNAP-GIPR expression: sheet Fig 1C;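 as to all read-outs here: scaled to the experimental average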
Method in brief: (§1)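 Surface GIPR is quantified from wide-field images after labelling intact transfected cells with a membrane-impermeant SNAP probe at 500 nM for 10 min at room temperature. Specific signal, corrected for nontransfected cells, is normalized to the experiment-wide average or to wild-type.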

[2] = system: wild-type and variant SNAP-GIPR; assay: Surface SNAP-GIPR expression (SNAP-tag labelling) in INS-1 cells; settings: Fig 4G; Mean
Method in brief: as §1

[3] = system: wild-type and variant SNAP-GIPR; assay: Single-concentration GIP cAMP response by HTRF in AD293 cells; settings: Fig S3F, HTRF, mean;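 also: ratio to experiment-wide average response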
Procedure: (§2) All variants were tested in parallel on each occasion to control for transfection efficiency differences between experiments.

[4] = system: wild-type and variant SNAP-GIPR; assay: Single-concentration GIP cAMP response by HTRF in INS-1 cells; settings: Fig S3E, mean
Procedure: as §2

[5] = system: wild-type and variant SNAP-GIPR; assay: cADDis cAMP imaging in AD293 cells, ensemble, expression-matched and per decile; settings: Fig S3F, cADDis, mean
Method in brief: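 Per-cell cAMP from cADDis intensity over time, with cells excluded by IBMX/FSK response criteria. Expression matching used wild-type surface-SNAP deciles, top and bottom trimmed, mean of decile means. Ensemble values ignore deciles. Wide-field imaging at 37 °C in KRBH with 6 mM glucose, 0.1% BSA, 24 h post-transfection in AD293.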

[6] = system: wild-type and variant SNAP-GIPR; assay: Constitutive and agonist-mediated internalization, reversible SNAP-tag labelling, AD293 cells; parameters: key to Internalisation, Vehicle / Internalisation, +GIP / Internalisation, GIP-only: % internalization: residual fluorescence after Mesna vs pre-Mesna; Surface expression: unit not given here; settings: Mean; for +GIP internalisation (100 nM) / GIP-specific internalisation (100 nM) / Constitutive internalisation (100 nM) / Surface expression: Fig 4E; for +GIP internalisation (100 nM) / GIP-specific internalisation (100 nM): GIP 100 nM; for Internalisation, +GIP / Internalisation, GIP-only / Internalisation, Vehicle: Fig S4C, AD293
Method in brief: (§3)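 Surface SNAP-GIPR signal removable by Mesna was tracked by imaging before and 10 min after treatment in pH 8.6 TNE buffer. Internalization is the Mesna-resistant share of specific fluorescence.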

[7] = system: wild-type and variant SNAP-GIPR; assay: Constitutive and agonist-mediated internalization, reversible SNAP-tag labelling, INS-1 cells; parameters: key to Internalisation, GIP-only / Internalisation, Vehicle / Internalisation, +GIP: % internalization: residual fluorescence after Mesna vs pre-Mesna; settings: Mean; for +GIP internalisation (100 nM) / GIP-specific internalisation (100 nM) / Constitutive internalisation (100 nM): Fig 4G; for +GIP internalisation (100 nM) / GIP-specific internalisation (100 nM): GIP 100 nM; for Internalisation, +GIP / Internalisation, GIP-only / Internalisation, Vehicle: Fig S4C, INS-1
Method in brief: as §3

[8] = column repeated, paired with cAMP 100 nM

B1: R341P (protein, UniProt P48546 22-466, looked up, variant R341P)
Gastric inhibitory …: RAETGSKGQTAGELYQRWERYRRECQETLAAAEPPSGLACNGSFDMYVCWDYAAPNATARASCPWYLPWHHHVAAGFVLRQCGSDGQWGLWRDHTQCENPEKNEAFLDQRLILERLQVMYTVGYSLSLATLLLALLILSLFRRLHCTRNYIHINLFTSFMLRAAAILSRDRLLPRPGPYLGDQALALWNQALAACRTAQIVTQYCVGANYTWLLVEGVYLHSLLVLVGGSEEGHFRYYLLLGWGAPALFVIPWVIVRYLYENTQCWERNEVKAIWWIIRTPILMTILINFLIFIRILGILLSKLRTRQMRCRDYRLRLAPSTLTLVPLLGVHEVVFAPVTEEQARGALRFAKLGFEIFLSSFQGFLVSVLYCFINKEVQSEIRRGWHHCRLRRSLGEEQRQLPERAFRALPSGSGPGEVPTSRGLSSGTLPGPGNEASRELESYC
In the case of B1, the “AD293 Surface” value [1, 8] is reported as 0.2494, the “AD293 Surface” value ([1]; paired with cAMP 100 pM) is reported as 0.2494 and the “Surface SNAP-GIPR expression” value ([1]; replicate 1) is reported as 0.3004. The “Surface SNAP-GIPR expression” value ([1]; replicate 2) was 0.416, the “Surface SNAP-GIPR expression” value ([1]; replicate 3) was 0.1222 and the “Surface SNAP-GIPR expression” value ([1]; replicate 4) was 0.3179. The “Surface SNAP-GIPR expression” value ([1]; replicate 5) was 0.375, the “Surface SNAP-GIPR expression” value ([1]; replicate 6) was 0.2191 and the “Surface SNAP-GIPR expression” value ([1]; replicate 7) was 0.3629. The “Surface SNAP-GIPR expression” value ([1]; replicate 8) was 0.2975, the “Surface SNAP-GIPR expression” value ([1]; replicate 9) was 0.196 and the “Surface SNAP-GIPR expression” value ([1]; replicate 10) was 0.2642. The “Surface SNAP-GIPR expression” value ([1]; replicate 11) was 0.31, the “Surface SNAP-GIPR expression” value ([1]; replicate 12) was 0.2856 and the “Surface SNAP-GIPR expression” value ([1]; replicate 13) was 0.6221. For the same molecule, the “Surface SNAP-GIPR expression” value ([1]; replicate 14) was 0.2061, the “Surface SNAP-GIPR expression” value ([1]; replicate 15) was 0.2357 and the “Surface SNAP-GIPR expression” value ([1]; replicate 16) was 0.2383. For the same molecule, the “Surface SNAP-GIPR expression” value ([1]; replicate 17) was 0.211, the “Surface SNAP-GIPR expression” value ([1]; replicate 18) was 0.144 and the “Surface SNAP-GIPR expression” value ([1]; replicate 19) was 0.3559. For the same molecule, the “Surface SNAP-GIPR expression” value ([1]; replicate 20) was 0.2316, the “Surface SNAP-GIPR expression” value ([1]; replicate 21) was 0.2368 and the “Surface SNAP-GIPR expression” value ([1]; replicate 22) was 0.1783. For the same molecule, the “Surface SNAP-GIPR expression” value ([1]; replicate 23) was 0.2272, the “Surface SNAP-GIPR expression” value ([1]; replicate 24) was 0.2138 and the “Surface SNAP-GIPR expression” value ([1]; replicate 25) was 0.2383. For the same molecule, the “Surface SNAP-GIPR expression” value ([1]; replicate 26) was 0.2262, the “Surface SNAP-GIPR expression” value ([1]; replicate 27) was 0.2274 and the “Surface SNAP-GIPR expression” value ([1]; replicate 28) was 0.2002. For the same molecule, the “Surface SNAP-GIPR expression” value ([1]; replicate 29) was 0.197, the “Surface SNAP-GIPR expression” value ([1]; replicate 30) was 0.3017 and the “Surface SNAP-GIPR expression” value ([1]; replicate 31) was 0.1334. For the same molecule, the “Surface SNAP-GIPR expression” value ([1]; replicate 32) was 0.2186, the “Surface SNAP-GIPR expression” value ([1]; replicate 33) was 0.2522 and the “Surface SNAP-GIPR expression” value ([1]; replicate 34) was 0.2282. For the same molecule, the “Surface SNAP-GIPR expression” value ([1]; replicate 35) was 0.2532, the “Surface SNAP-GIPR expression” value ([1]; replicate 36) was 0.1015 and the “Surface SNAP-GIPR expression” value ([1]; replicate 37) was 0.1446. For the same molecule, the “Surface SNAP-GIPR expression” value ([1]; replicate 38) was 0.2212, the “Surface SNAP-GIPR expression” value ([1]; replicate 39) was 0.2317 and the “Surface SNAP-GIPR expression” value ([1]; replicate 40) was 0.2075. For the same molecule, the “Surface SNAP-GIPR expression” value ([1]; replicate 41) was 0.2741, the Surface expression [2] was 0.2942 and the “AD293 100 pM HTRF” value [3] was 0.001435. The “AD293 100 nM HTRF” value [3] was 0.1915, the “INS-1 cAMP (100 nM)” value [4] was -0.2249 and the “AD293 100 pM cADDis” value [5] was 0.6137. For the same molecule, the “AD293 100 nM cADDis” value [5] was 9.179, the “+GIP internalisation (100 nM)” value [6] was 0.1278 and the “GIP-specific internalisation (100 nM)” value [6] was 0.02136. For the same molecule, the “Constitutive internalisation (100 nM)” value [6] was 0.1065, the Surface expression [6] was 0.1733 and the “Internalisation, +GIP” value [6] was 72.1567. For the same molecule, the “Internalisation, GIP-only” value [6] was 15.7264, the “Internalisation, Vehicle” value [6] was 56.4303 and the “+GIP internalisation (100 nM)” value [7] was 0.1423. For the same molecule, the “GIP-specific internalisation (100 nM)” value [7] was 0.02008, the “Constitutive internalisation (100 nM)” value [7] was 0.1222 and the “Internalisation, +GIP” value [7] was 48.645. The “Internalisation, GIP-only” value [7] was 6.527 and the “Internalisation, Vehicle” value [7] was 42.1183.

B2: R136W (protein, UniProt P48546 22-466, looked up, variant R136W)
Gastric inhibitory …: B1 Gastric inhibitory … with R115W, P320R
For B2, the “AD293 Surface” value [1, 8] was 1.539, the “AD293 Surface” value ([1]; paired with cAMP 100 pM) was 1.539 and the “Surface SNAP-GIPR expression” value ([1]; replicate 1) was 1.301. For the same molecule, the “Surface SNAP-GIPR expression” value ([1]; replicate 2) was 1.896, the “Surface SNAP-GIPR expression” value ([1]; replicate 3) was 1.558 and the “Surface SNAP-GIPR expression” value ([1]; replicate 4) was 1.426. The “Surface SNAP-GIPR expression” value ([1]; replicate 5) was 1.728, the “Surface SNAP-GIPR expression” value ([1]; replicate 6) was 1.162 and the “Surface SNAP-GIPR expression” value ([1]; replicate 7) was 1.369. The “Surface SNAP-GIPR expression” value ([1]; replicate 8) was 1.722, the “Surface SNAP-GIPR expression” value ([1]; replicate 9) was 1.795 and the “Surface SNAP-GIPR expression” value ([1]; replicate 10) was 1.62. The “Surface SNAP-GIPR expression” value ([1]; replicate 11) was 1.44, the “Surface SNAP-GIPR expression” value ([1]; replicate 12) was 1.625 and the “Surface SNAP-GIPR expression” value ([1]; replicate 13) was 1.681. For the same molecule, the “Surface SNAP-GIPR expression” value ([1]; replicate 14) was 1.394, the “Surface SNAP-GIPR expression” value ([1]; replicate 15) was 1.54 and the “Surface SNAP-GIPR expression” value ([1]; replicate 16) was 1.63. For the same molecule, the “Surface SNAP-GIPR expression” value ([1]; replicate 17) was 1.488, the “Surface SNAP-GIPR expression” value ([1]; replicate 18) was 1.722 and the “Surface SNAP-GIPR expression” value ([1]; replicate 19) was 2.073. For the same molecule, the “Surface SNAP-GIPR expression” value ([1]; replicate 20) was 1.443, the “Surface SNAP-GIPR expression” value ([1]; replicate 21) was 1.607 and the “Surface SNAP-GIPR expression” value ([1]; replicate 22) was 1.548. For the same molecule, the “Surface SNAP-GIPR expression” value ([1]; replicate 23) was 1.562, the “Surface SNAP-GIPR expression” value ([1]; replicate 24) was 1.636 and the “Surface SNAP-GIPR expression” value ([1]; replicate 25) was 1.259. The “Surface SNAP-GIPR expression” value ([1]; replicate 26) was 1.57, the “Surface SNAP-GIPR expression” value ([1]; replicate 27) was 1.295 and the “Surface SNAP-GIPR expression” value ([1]; replicate 28) was 1.198. The “Surface SNAP-GIPR expression” value ([1]; replicate 29) was 1.582, the “Surface SNAP-GIPR expression” value ([1]; replicate 30) was 1.517 and the “Surface SNAP-GIPR expression” value ([1]; replicate 31) was 1.447. For the same molecule, the “Surface SNAP-GIPR expression” value ([1]; replicate 32) was 1.457, the “Surface SNAP-GIPR expression” value ([1]; replicate 33) was 1.855 and the “Surface SNAP-GIPR expression” value ([1]; replicate 34) was 1.376. For the same molecule, the “Surface SNAP-GIPR expression” value ([1]; replicate 35) was 1.615, the “Surface SNAP-GIPR expression” value ([1]; replicate 36) was 1.418 and the “Surface SNAP-GIPR expression” value ([1]; replicate 37) was 1.346. For the same molecule, the “Surface SNAP-GIPR expression” value ([1]; replicate 38) was 1.685, the “Surface SNAP-GIPR expression” value ([1]; replicate 39) was 1.551 and the “Surface SNAP-GIPR expression” value ([1]; replicate 40) was 1.483. For the same molecule, the “Surface SNAP-GIPR expression” value ([1]; replicate 41) was 1.492, the Surface expression [2] was 1.406 and the “AD293 100 pM HTRF” value [3] was 0.0806. For the same molecule, the “AD293 100 nM HTRF” value [3] was 1.324, the “INS-1 cAMP (100 nM)” value [4] was 1.164 and the “AD293 100 pM cADDis” value [5] was 19.5296. For the same molecule, the “AD293 100 nM cADDis” value [5] was 38.38, the “+GIP internalisation (100 nM)” value [6] was 0.7747 and the “GIP-specific internalisation (100 nM)” value [6] was 0.1529. For the same molecule, the “Constitutive internalisation (100 nM)” value [6] was 0.6218, the Surface expression [6] was 1.49 and the “Internalisation, +GIP” value [6] was 52.0458. The “Internalisation, GIP-only” value [6] was 10.2879, the “Internalisation, Vehicle” value [6] was 41.7579 and the “+GIP internalisation (100 nM)” value [7] was 0.6838. The “GIP-specific internalisation (100 nM)” value [7] was 0.1408, the “Constitutive internalisation (100 nM)” value [7] was 0.543 and the “Internalisation, +GIP” value [7] was 46.5117. For the same molecule, the “Internalisation, GIP-only” value [7] was 9.467 and the “Internalisation, Vehicle” value [7] was 37.045.
